According to article PMC10404244, “Control of motor landing and processivity by the CAP-Gly domain in the KIF13B tail” (Nature Communications, 2023):

Biological target: T1, tyrosinated microtubules polymerized from purified porcine brain tubulin (porcine, UniProt P02550 1-451); Q767L7 1-444, part of the tubulin labelled with biotin NHS ester and Dylight-405 (or Alexa647) NHS ester (chain and residues not told) | part of the tubulin labelled with biotin NHS ester and Dylight-405 (or …)
T1 construct: alpha-tubulin of porcine brain, mixture of isotypes and PTMs, approximately 50% tyrosinated; beta-tubulin of porcine brain, mixture of isotypes and PTMs; A polymer of alpha/beta-tubulin dimers, held on the coverslip through biotin-streptavidin; also called WT (tyrosinated) microtubules; tyrosinated MTs; source: purified from porcine brain (high-molarity PIPES procedure), polymerized with GTP, …
Test: TIRF microscopy microtubule-binding assay; KIF5B constructs on tyrosinated and detyrosinated microtubules in the presence of ADP (Supplementary Fig. 5G); read-out not told

fold binding, tyrosinated over detyrosinated microtubules (ADP): ~16 fold
B1: chimeric KIF5B motor domain and stalk appended with the CAP-Gly domain from KIF13B (other)
chain: MADLAECNIKVMCRFRPLNESEVNRGDKYIAKFQGEDTVVIASKPYAFDRVFQSSTSQEQVYNDCAKKIVKDVLEGYNGTIFAYGQTSSGKTHTMEGKLHDPEGMGIIPRIVQDIFNYIYSMDENLEFHIKVSYFEIYLDKIRDLLDVSKTNLSVHEDKNRVPYVKGCTERFVCSPDEVMDTIDEGKSNRHVAVTNMNEHSSRSHSIFLINVKQENTQTEQKLSGKLYLVDLAGSEKVSKTGAEGAVLDEAKNINKSLSALGNVISALAEGSTYVPYRDSKMTRILQDSLGGNCRTTIVICCSPSSYNESETKSTLLFGQRAKTIKNTVCVNVELTAEQWKKKYEKEKEKNKILRNTIQWLENELNRWRNGETVPIDEQFDKEKANLEAFTVDKDITLTNDKPATAIGVIGNFTDAERRKCEEEIAKLYKQLDDKDEEINQQSQLVEKLKTQMLDQEELLASTRRDQDNMQAELNRLQAENDASKEEVKEVLQALEELAVNYDQKSQEVEDKTKEYELLSDELNQKSATLASIDAELQKLKEMTNHQKKRAAEMMASLLKDLAEIGIAVGNNDVKQPEGTGMIDEEFTVARLYISKMKSEVKTMVKRCKQLESTQTESNKKMEENEKELAACQLRISQHEAKIKSLTEYLQNVEQKKRQLEESVDALSEELVQLRAQEKVHEMEKEHLNKVQTANEVKQAVEQQIQSHRETHQKQISSLRDEVEAKAKLITDLQDQNQKMMLEQERLRVEHEKLKATDQEKSRKLHELTVMQDRREQARQDLKGLEETVAKELQTLHNLRKLFVQDLATRVKKSAEIDSDDTGGSAAQKQKISFLENNLEQLTKVHKQLVRDNADLRCELPKLEKRLRATAERVKALESALKEAKENASRDRKRYQQEVDRIKEAVRSKNMAQALASDSEEADEVPEWLREGEFVTVGAHKTGVVRYVGPADFQEGTWVGVELDLPSGKNDGSIGGKQYFRCNPGYGLLVRPSRVRRATGPVRRRSTGLRLGAPEARRSATLSGSATNLASLTAALAKADRSHKNPENRKSWAS
